Article PMC3679732, “Cloning and characterization of bifunctional enzyme farnesyl diphosphate/geranylgeranyl diphosphate synthase from Plasmodium falciparum” (Malaria Journal, 2013)

Tests used:
Assay in all cases: purified protein
Format in all cases: biochemical, Plasmodium falciparum
[1] = substrate: C=C(C)CCO[P@@](=O)(O)OP(=O)(O)O; conditions: Mg2+ ([…] MgCl2 in assay) second substrate
[2] = substrate: CC(C)=CCC/C(C)=C/CC/C(C)=C/CO[P@@](=O)(O)OP(=O)(O)O; conditions: Mg2+ ([…] MgCl2 in assay) allylic substrate; DMAPP, GPP, and FPP all compete for binding to the free enzyme active site
[3] = substrate: CC(C)=CCOP(=O)(O)OP(=O)(O)O; conditions: Mg2+ ([…] MgCl2 in assay) allylic substrate; DMAPP, GPP, and FPP all compete for binding to the free enzyme active site
[4] = substrate: CC(C)=CCC/C(C)=C/COP(=O)(O)OP(=O)(O)O; conditions: Mg2+ ([…] MgCl2 in assay) allylic substrate; DMAPP, GPP, and FPP all compete for binding to the free enzyme active site

B1: farnesyl diphosphate/geranylgeranyl diphosphate synthase (rPfFPPS) (Plasmodium falciparum 3D7) (protein)
chain: MENEQNNQDSENGLDYFRSMYDRYRDVFINHINDYVLEDDIKIIISKYYKLLFDYNCLGGKNNRGILVILIYEYVKNRDINCNEWEKVACIAWCIEILQASFLVADDIMDKGETRRNKHCWYLLKDVEIKNAVNDVFLLYNAIYKLLDVYLRNDNCYLDLITSFREATLKTIVGQHLDTNIFSDKYSHIDKDIDVNNINISQENKININMLNFKVYQNIIIHKTAYYSFFLPIVCGMQMGGISLDNLLYKKVENIAILMGEYFQVHDDYIDTFGDSKKTGKVGSDIQNNKLTWPLIKAFELCSQPEKEDIIRNYGKDNVTCIKFINDIYEHYNIRDHYVEYEKKQKMKILEAINQLHHEGIEYVLKYVMDILFTGA
notes: full length protein expressed as a GST fusion protein
Km [1]: 2.4 ± 0.3 µM
Vmax [1]: 0.156 µmol/min/mg
Km [2]: 2.06 ± 0.4 µM
Vmax [2]: 0.327 µmol/min/mg
Km [3]: 68 ± 5 µM
Vmax [3]: 0.453 µmol/min/mg
Km [4]: 7.8 ± 1.3 µM
Vmax [4]: 0.341 µmol/min/mg
